Experiments:
ヒトPCSK9(野生型) (human) = experiment: Biacore at pH 6.0 (HBS-P with 0.01 % BSA), fitted from competition curves, n=1
ヒトD374Y PCSK9 (human) [1] = experiment: cell-based or functional assay
ヒトD374Y PCSK9 (human) [2] = experiment: competition ELISA: block of biotinylated D374Y PCSK9 (20 ng/mL) binding to captured LDLR

Substance	Kd (ヒトPCSK9(野生型) (human))	細胞LDL取り込みアッセイ(HepG2、LDL-BODIPY)のIC50 (ヒトD374Y PCSK9 (human) [1])	IC50 (ヒトD374Y PCSK9 (human) [2])
21B12 (antibody)	0.0073 nM		
31H4 IgG2 (antibody)		16.7 nM	0.199 nM

Further lines, results first:

Kd (ヒトPCSK9(野生型) (human))	細胞LDL取り込みアッセイ(HepG2、LDL-BODIPY)のIC50 (ヒトD374Y PCSK9 (human) [1])	IC50 (ヒトD374Y PCSK9 (human) [2])	Substance
	13.3 nM	0.17 nM	21B12 IgG2 (antibody)
	18 nM	0.169 nM	21B12 IgG4 (antibody)
	13.3 nM	0.156 nM	31H4 IgG4 (antibody)
